Experimental data from patent publication US20220356230A1.
Where “and” joins values, the source holds several entries; their conditions need not be identical. Equal values may be shown once.

Experiments:
[1] = target: SARS-CoV-2 Spike Protein (Accession number MN908947.3, amino acids 16-1211) on pseudotyped VSV VLPs (SARS-CoV-2) (UniProt P0DTC2)
[2] = target: MERS.hFc (mAb2664-L1) (MERS-CoV) (UniProt K9N5Q8); assay: Luminex bead assay, supernatant
[3] = target: Bt-MERS.hFc (mAb2664-L2) (MERS-CoV) (UniProt K9N5Q8); assay: Luminex bead assay, supernatant
[4] = target: MERS.mFc (mAb2663-L1) (MERS-CoV) (UniProt K9N5Q8); assay: Luminex bead assay, supernatant
[5] = target: VLPs expressing VSV only (negative binding control) (vesicular stomatitis virus)
[6] = target: SARS-CoV-2 spike protein (S-wt, Wuhan-Hu-1, NCBI Accession Number MN908947.3) on VSV-SARS-CoV-2-S pseudoparticles (SARS-CoV-2) (UniProt P0DTC2); assay: cell-based or functional assay

Row | Substance | Ratio VSV/Spike:VSV [1] | Binding signal (MFI) [2] [MFI] | Binding signal (MFI) [3] [MFI] | Binding signal (MFI) [4] [MFI] | Antibody Binding Signal (RLU) [5] | mAb neutralization potency (IC50 (M)) [6] [M]
1 | IgG1 Isotype Control (antibody) | 1 and 2 | – | – | – | – | –
2 | mAb10933 (antibody) | – | 21 | 26 | 22 | 82 RLU and 29 RLU | –
3 | mAb10934 (antibody) | – | – | – | 77 | – | 5.44e-11
4 | mAb10936 (antibody) | – | 26 | 32 | 32 | – | 1.11e-10
5 | mAb10987 (antibody) | – | – | – | – | – | 4.06e-11
